Laboratory results from PMC5992146.
pKd: −log10 of the molar value.

Columns and labels:
[1] = molecular target: actin (UniProt P68135)
[2] = molecular target: actin (UniProt P68135); assay: co-sedimentation; MYO3A (0.5 µM) equilibrated with actin (0-60 µM) in KMg50 buffer (50 mM KCl, 1 mM EGTA, 1 mM MgCl2, 10 mM imidazole pH 7.0, 1 mM DTT) with ATP regeneration system, 1 mM ATP added, centrifuged 10 min at 25 °C; fraction bound from GFP fluorescence of the supernatant and from Coomassie SDS-PAGE, hyperbolic fit; steady-state actin affinity (K_Actin) in the presence of ATP

K (ATPase): actin concentration at which the steady-state actin-activated ATPase activity is one-half maximal (KMg50 buffer, 25 °C) [1]	pKd [2]	Substance
1.93 µM	5.33	MYO3AΔK 2IQ c-GFP WT (from UniProt Q8NEV4-1 1-1616) (domain or fragment)
< 0.77 µM	5.66	MYO3AΔK 2IQ c-GFP L697W (from UniProt Q8NEV4-1 1-1616) (domain or fragment)
